Measurements from the Human Domainome abundance scans (Beltran et al. 2025).

B1: RAS guanyl-releasing protein 1, residues 539 to 593; numbered along this chain, O95267 (parent)
chain: GFPHNFQETTYLKPTFCDNCAGFLWGVIKQGYRCKDCGMNCHKQCKDLVVFECKK

Variants of: B1
Assay: abundance fitness (aPCA) (normalised: wild type 0, dead -1); higher = more abundant; growth selection in yeast, the domain comes from the species named
Conditions: Homo sapiens

Abundance fitness, by site and new letter:
H4: P -0.915; D -0.595; L -1.07; S -0.92; M -0.335; Q -0.804; W -1.04; E -0.628; N -0.708; Y -0.716; V -0.947; A -0.878; K -0.243; G -0.847
A21: F -0.074; T 0.043; E -0.041; M -0.162; W -0.222; H -0.082; R 0.053; I 0.04; G -0.084; K 0.019; C -0.009; Y 0.13; P -0.116; Q -0.311; V -0.071
G22: D -0.189; H -0.078; M 0.105; N -0.298; K -0.278; I -0.154; E -0.164; R -0.082; C 0.147; P -0.595; S -0.066; Q -0.146; V -0.482; F -0.386; Y -0.317
L12: V -0.39; C -0.183; E -0.19; F -0.076; W -0.298; D -0.424; G -0.038; R -0.178; S -0.123; P -0.149; T -0.25; I -0.63; Q -0.337; N -0.768; Y -0.145; M 0.319
C17: W -1.27; Q -0.755; F -1.14; M -0.578; E -0.826; V -0.878; R -0.851; D -0.986; P -1.13; H -0.784; S -0.948; G -0.99; T -0.821; I -0.869; L -1.26; A -1.09
Q7: A -0.027; D -0.204; V -0.197; T -0.236; E -0.073; N 0.016; H -0.096; K -0.484; L -0.149; I -0.217; G -0.116; R -0.123; S -0.127; M 0.028; C -0.366; P -0.961; Y -0.151
D18: G -0.294; S 0.028; F -0.063; Y -0.315; N -0.026; I -0.142; K -0.017; A -0.016; P -0.732; E -0.087; M -0.079; L -0.013; W 0.123; V -0.132; C -0.253; R -0.059; T 0.205; Q -0.001; H -0.383
P14: D -0.38; G -0.449; E -0.886; K -0.672; I -0.647; Q -1; R -0.739; W -0.108; H -0.687; T -0.767; V -0.384; L -0.296; F -0.364; N -0.931; A -0.253; Y -0.397; C -0.235
P3: R -0.015; T 0.06; F 0.483; V 0.064; L 0.007; I 0.209; G 0.116; M 0.131; E 0.357; S 0.099; Y 0.394; H 0.17; N 0.227; K -0.171; Q 0.14
N5: G -0.075; K -0.157; Y -0.459; Q -0.051; C -0.23; D -0.104; E -0.098; T -0.026; F -0.226; I -0.039; S -0.066; R -0.169; M -0.018; L -0.026; P -0.403; W -0.14; H 0.001; A -0.141; V -0.218
E8: M 0.197; D -0.452; W -0.174; N -0.152; S -0.191; C -0.107; P -0.303; I -0.063; T -0.274; G 0.007; Y -0.105; A 0.039; R -0.068; V 0.039; H -0.765; Q 0.086; F -0.096
N19: A 0.065; G 0.134; C -0.061; Q -0.29; F 0.068; W 0.082; I -0.163; E 0.11; S 0.05; T -0.043; L -0.018; V -0.02; R -0.036; D -0.101; K -0.052; M 0.135; H -0.02; Y -0.142
T15: L -0.236; N -0.336; R -0.29; H -0.185; D -0.622; F -0.434; V -0.425; A 0.105; P -0.476; M -0.146; I -0.162; E -0.401; S -0.181; K -0.391; C -0.327; Q -0.426; W -0.444; G -0.607
F6: C -0.132; S -0.252; H -0.319; P -0.477; T -0.436; Y -0.093; V -0.06; G -0.627; A -0.267; W -0.667; Q -0.309; I -0.269; N -0.29; M -0.01; K -0.647; R -0.574; E -0.551; L -0.138; D -0.788
F16: V -0.385; W -0.376; Q -0.243; Y 0.024; G -0.333; H -0.148; N -0.175; K -0.205; A -0.085; T -0.33; C 0.038; S -0.285; L -0.487; E -0.408; D -0.371; P -0.334
K13: F -0.167; V -0.106; A -0.223; P -0.507; H 0.015; G -0.333; D -0.603; S -0.116; T -0.105; M 0.04; N -0.336; Q -0.247; E -0.565; W -0.131; C -0.153; I -0.257; L -0.028; R -0.231
T10: S -0.092; N -0.311; K -0.456; W -0.073; A -0.408; L -0.426; Y -0.291; R -0.494; V -0.95; I -0.576; P -0.605; E -0.925; H -0.364; Q -0.357; G -0.208; F -0.045; M -0.682
C20: E -0.931; T -1.05; R -0.74; W -0.827; V -1.13; A -1.01; N -1.29; H -0.695; G -1.12; M -1.05; D -0.541; S -1.24; Q -1.01; L -0.974
T9: G -0.273; D -0.131; E -0.376; Q -0.056; S 0.028; H -0.021; Y -0.013; N -0.051; M 0.034; L -0.184; P -0.768; R -0.068; W -0.136; F -0.216; K -0.473; I -0.203; C -0.035
Y11: A -0.267; E -0.256; I -0.301; Q -0.458; P -0.742; N -0.225; V -0.25; F 0.227; K -0.036; C -0.151; D -0.832; T -0.318; S 0.028; L -0.031; H 0; R -0.214; W -0.17
